According to article PMC6986101, “The mitochondrial HSP90 paralog TRAP1 forms an OXPHOS-regulated tetramer and is involved in mitochondrial metabolic homeostasis” (BMC Biology, 2020):

Columns and labels:
[1] = biological target: the molecule itself; assay: native gel or EMSA; clear native PAGE (6% or 8% Tris-glycine, 4 °C) of 30 μg mitochondrial extract, immunoblot with anti-TRAP1; cells also treated with hypoxia, oligomycin, rotenone, antimycin A or LDHi, or grown on different carbon sources
[2] = biological target: the molecule itself; assay: native gel or EMSA; blue native PAGE (3-12%) of purified recombinant TRAP1 (20 and 5 ng), immunoblot with anti-TRAP1
[3] = biological target: the molecule itself; assay: affinity purification with mass spectrometry + native gel or EMSA; glutathione bead pull-down of TRAP1-GST from 1 mg mitochondrial lysate of transfected HEK293T cells, elution with 80 mM glutathione, 6% clear native gel, the stained complex band excised and analysed by LC/MS/MS; cutoff 11 unique peptides, GST alone as control

B1: endogenous TRAP1 (natural protein, human (endogenous in HEK293T), UniProt Q12931 60-704, looked up)
chain: STQTAEDKEEPLHSIISSTESVQGSTSKHEFQAETKKLLDIVARSLYSEKEVFIRELISNASDALEKLRHKLVSDGQALPEMEIHLQTNAEKGTITIQDTGIGMTQEELVSNLGTIARSGSKAFLDALQNQAEASSKIIGQFGVGFYSAFMVADRVEVYSRSAAPGSLGYQWLSDGSGVFEIAEASGVRTGTKIIIHLKSDCKEFSSEARVRDVVTKYSNFVSFPLYLNGRRMNTLQAIWMMDPKDVREWQHEEFYRYVAQAHDKPRYTLHYKTDAPLNIRSIFYVPDMKPSMFDVSRELGSSVALYSRKVLIQTKATDILPKWLRFIRGVVDSEDIPLNLSRELLQESALIRKLRDVLQQRLIKFFIDQSKKDAEKYAKFFEDYGLFMREGIVTATEQEVKEDIAKLLRYESSALPSGQLTSLSEYASRMRAGTRNIYYLCAPNRHLAEHSPYYEAMKKKDTEVLFCFEQFDELTLLHLREFDKKKLISVETDIVVDHYKEEKFEDRSPAAECLSEKETEELMAWMRNVLGSRVTNVKVTLRLDTHPAMVTVLEMGAARHFLRMQQLAKTQEERAQLLQPTLEINPRHALIKKLNQLRASEPGLAQLLVDQIYENAMIAAGLVDDPRAMVGRLNELLVKALERH
notes: also called endogenous mitochondrial TRAP1; wild-type (WT) endogenous TRAP1; source: endogenous, mitochondrial extracts of HEK293T cells (also MCF-7, MDA-MB-134, PC3 and HCT116 cells)
stoichiometry N [1]: 4

B2: recombinant human TRAP1 (natural protein, UniProt Q12931 60-704, looked up)
chain: B1 chain
notes: TRAP1, human, recombinant; probably without the MTS (surmise); Same material used for blue native PAGE and cryo-EM; also called purified recombinant TRAP1
stoichiometry N [2]: 4

B3: TRAP1-GST fusion protein (natural protein, human, UniProt Q12931 60-704, looked up)
chain: B1 chain
notes: TRAP1, human; the MTS is cleaved off upon import; Called one of the 'full-length TRAP1 proteins with different tags'; source: HEK293T, transfected, pulled down from mitochondrial lysate on glutathione beads and eluted with glutathione; not shown: GST, C-terminal, kept
stoichiometry N [3]: 4
